# In patent US20190083619A1, “METHODS AND COMPOSITIONS FOR REMOVING, REDUCING, DISPERSING, DISRUPTING OR ERADICATING BIOFILMS AND DETERMINING THE NUMBER OF BACTERIAL POPULATION IN BIOFILM OR A CULTURE CONTAINING BACTERIAL AGGREGATE” (INSTITUTE OF MICROBIOLOGY, CHINESE ACADEMY OF SCIENCES, priority 2017, published 2019):
# T1: (2S,3R)-3-Amino-2-hydroxy-5-methylhexanoyl-Val-Val-Asp (Amastatin)
# T1 chain: VVD
# What was measured:
# [1] = tested on: Psl production in PAO1; assay: Psl production by anti-Psl immunodot blotting; assay type: cell-based, P. aeruginosa; settings: 5 μM C12-HSL added to culture medium; FIG. 3D
# Method: To examine Psl production, exopolysaccharide Psl extracts were collected from overnight cultures equivalent to approximately 10 OD600 and examined by immunodot blotting using an anti-Psi antibody. For the effect of C12-HSL on Psl production, 5 μM C12-HSL was added to the medium after inoculation. The software Image Lab™ was used to quantify the immunodot blotting data.
# LasI directs the synthesis of the QS signal molecular, N-(3-oxododecanoyl)-L-homoserine lactone (C12-HSL). Thus, whether C12-HSL supplement could affect Psl production in PAO1 was examined. […] C12-HSL is usually associated with the transcriptional regulator LasR to active their target genes.
# [2] = tested on: psl transcription in PAO1; assay: psl transcription detected by psl::gfp reporter plasmid; assay type: cell-based, P. aeruginosa; settings: 5 μM C12-HSL added to PAO1 culture; FIG. 3E
# [3] = tested on: ΔpaaP strain; assay: MIC by E test strips; assay type: cell-based, P. aeruginosa; settings: E test strip, 37° C. overnight; FIG. 9A
# Method: The MIC (minimum inhibition concentration) of ΔpaaP strain to tobramycin and ciprofloxacin, two antibiotics commonly used to treat P. aeruginosa infections, was tested by E test strips. Overnight culture was diluted to OD600˜0.1, and spread on the plate. The E test strip was put onto the plate, cultivated at 37° C. overnight, and the minimum inhibition concentration was recorded according to the E test strip.
# [4] = biological target: T1, (2S,3R)-3-Amino-2-hydroxy-5-methylhexano …
# [5] = tested on: A1501; assay: Dispersal of bacterial aggregates in liquid culture, OD600 read; assay type: cell-based, P. stutzeri; settings: 100 nM PslG, KLG+ medium, 3 h, 6 h, 30 h; FIG. 13C
# Method: (§1) PAO1-derived rugose small colony variant (RSCV) strain MJK8 was grown in LBNS at 37° C. 200 rpm overnight. This overnight culture was washed and then inoculated into Jensen's medium or in LBNS medium at 1:50 with or without 100 nM of PslG. Bacterial growth was determined by taking OD600 read at 3 h and 6 h post inoculation. P. stutzeri strain A1501 was firstly grown in LD medium at 30° C. 200 rpm overnight. The overnight culture was washed and inoculated into KLG^+ medium at 1:50 with or without 100 nM of PslG. OD600 was taken at 3 h, 6 h and 30 h post inoculation to monitor the bacterial growth. FIGS. 13A-13C show the comparison of OD600 read with or without PslG treatment of: MJK8 growth in chemically defined Jensen's medium (FIG. 13A); MJK8 growth in LBNS rich medium (FIG. 13B); A1501 growth in KLG^+ medium (FIG. 13C).
# [6] = tested on: PAO1 biofilms; assay: Dispersal of air-liquid interface biofilms and live cell counting by CFU; assay type: cell-based, P. aeruginosa; settings: 50 nM PslG, 30° C., 1 h, versus tissue homogenate and control; FIG. 14
# Method: The PAO1 strain was inoculated on LBNS solid medium plates and overnight incubated at 37° C. Then monoclones of the PAO1, collected from the LBNS solid medium plates, were inoculated in LBNS liquid medium and incubated at 37° C. overnight with shaking at 200 rpm. The culture was washed with PBS for once. Then the culture was inoculated in Jensen's liquid medium at 1:100 (V:V), and incubated at 30° C. in a 24-pore plate. Biofilms were formed at the air-liquid interface. The liquid under the biofilms was removed by a pipettor. The biofilms were washed with PBS for twice so as to remove free bacterial cells that are not embedded in the biofilms. The biofilms were added in PBS for subsequent treatment. For a tissue homogenate treatment group, a sterile glass homogenizer (1 mL) was used to homogenize the biofilms for three times. For PslG treatment group, PslG was added to the biofilms, and the final concentration of PslG is 50 nM. The biofilms were incubated at 30° C. for 1 h. For a control group, no treatment was performed on the biofilms at this stage. Afterwards, the biofilm samples from the tissue homogenate treatment group, the PslG treatment group, and the control group were homogenized using a pipette and then votexed. The biofilm samples were diluted in PBS at 1:10. […] The numbers of live cells in the biofilm samples was determined based on the CFUs.
# [7] = In vitro treatment of Psl extract, elution profile on Sephadex G-50 column; assay type: biochemical, P. aeruginosa; settings: exogenous-supplied PslG in vitro; FIG. 8B
# Method: The Psl extract from biofilm was prepared, fractionated on a Sephadex G-50 column, and irrigated with water at 0.67 ml/min. The total carbohydrate in each fraction (5 ml) was assayed colorimetrically for aldose. Briefly, 200 μl of each fraction was mixed with 100 μl 5% phenol and 500 μl concentrated sulfuric acid, reacted at room temperature for 30 minutes, and measured (OD492).
# To confirm, the Psl extracted from PAO1 biofilms was treated with exogenous-supplied PslG in vitro.
# [8] = tested on: MJK8; assay: Dispersal of bacterial aggregates in liquid culture, OD600 read; assay type: cell-based, P. aeruginosa; settings: 100 nM PslG, Jensen's or LBNS medium, 3 h and 6 h; FIG. 13A, 13B
# Method: as §1
molecule,measurement,setting,value
"CCCCCCCCCC(=O)CC(=O)N[C@H]1CCOC1=O [C12-HSL, N-(3-oxododecanoyl)-L-homoserine lactone]",effect on Psl production,[1],did increase Psl production in PAO1
same,effect on psl transcription,[2],psl transcription was enhanced
O=C(O)c1cn(C2CC2)c2cc(N3CCNCC3)c(F)cc2c1=O [ciprofloxacin],"MIC of ΔpaaP, fold lower than PAO1",[3],8 fold
P. aeruginosa aminopeptidase (PaAP) (protein) APSEAQQFTEFWTPGKPNPSICKSPLLVSTPLGLPRCLQASNVVKRLQKLEDIASLNDGNRAAATPGYQASVDYVKQTLQKAGYKVSVQPFPFTAYYPKGPGSLSATVPQPVTYEWEKDFTYLSQTEAGDVTAKVVPVDLSLGAGNTSTSGCEAEDFANFPAGSIALIQRGTCNFEQKAENAAAAGAAGVIIFNQGNTDDRKGLENVTVGESYEGGIPVIFATYDNGVAWSQTPDLQLHLVVDVVRKKTETYNVVAETRRGNPNNVVMVGAHLDSVFEGPGINDNGSGSAAQLEMAVLLAKALPVNKVRFAWWGAEEAGLVGSTHYVQNLAPEEKKKIKAYLNFDMIGSPNFGNFIYDGDGSDFGLQGPPGSAAIERLFEAYFRLRGQQSEGTEIDFRSDYAEFFNSGIAFGGLFTGAEGLKTEEQAQKYGGTAGKAYDECYHSKCDGIANINQDALEIHSDAMAFVTSWLSLSTKVVDDEIAAAGQKAQSRSLQMQKSASQIERWGHDFIK,"PaAP catalytic activity (hydrolysis of Leu-p-nitroanilide, 7 nM PaAP with 10, 20, 30 µM Amastatin or without)",[4],"the Amastatin may inhibit the enzyme activity of PaAP at micromolar concentrations, and the inhibition effect may increase with higher concentration of Amastatin"
PslG: glycosyl hydrolase of P. aeruginosa that degrades the Psl exopolysaccharide matrix; amino acid sequence SEQ ID NO: 6 (protein) EIQVLKAPRAVVWKDFLGVNAQFLWFSPERYNKQIDRLQDLGLEWVRLDLHWDRLETAEDQYQLASLDQLVKDLEARQLKSVFYLVGSARFITTAPFYSPFQDQYPPRDPEVFARRMAMLSQRYPSVAAWQVWNEPNLIGFWRPKADPEGYAKLLQASTIALRMVDPEKPVVSAGMAFFSEMPDGRTMFDALGHLGVESLGTIATYHPYTQLPEGNYPWNLDFVSHANQINRALRNAGVPAIWSTEWGWSAYKGPKELQDIIGVEGQADYVLRRLALMSALDYDRIFLFTLSDLDQRASVRDRDYGLLDLDANPKPVYLALQRFLKVTGPKLRPADPPVTEDLPDGSFSIGWTREDGRNVWLFWSARGGNVRLPKLKEATLHDPLSGKVTPLSGSDGLEVPVKSSLQMLVWE,dispersal of flocs in liquid culture,[5],can disperse the flocs of MJK8 and A1501 in liquid culture
same,number of detected CFUs for treated biofilms,[6],"significantly greater than the number of detected CFUs for the biofilms treated by tissue homogenate, and the biofilms in the control group"
same,elution profile of PslG-degraded Psl,[7],showed a very similar profile as Psl extracted from the ΔpaaP biofilm
same,dispersal of flocs in liquid culture,[8],can disperse the flocs of MJK8 and A1501 in liquid culture
